# Reference: paper PMC3937733
# Biological target: mTurquoise-Tub1p (S. cerevisiae) (UniProt P09733)
# Assay: FRET or BRET; sensitized emission FRET in living S. cerevisiae cells by confocal microscopy; mTurquoise donor, YFP acceptor; FRET index corrected for donor and acceptor bleed through and for the level of the donor (relative FRET index)
# UniProt P09733, sequence (P09733 whole entry): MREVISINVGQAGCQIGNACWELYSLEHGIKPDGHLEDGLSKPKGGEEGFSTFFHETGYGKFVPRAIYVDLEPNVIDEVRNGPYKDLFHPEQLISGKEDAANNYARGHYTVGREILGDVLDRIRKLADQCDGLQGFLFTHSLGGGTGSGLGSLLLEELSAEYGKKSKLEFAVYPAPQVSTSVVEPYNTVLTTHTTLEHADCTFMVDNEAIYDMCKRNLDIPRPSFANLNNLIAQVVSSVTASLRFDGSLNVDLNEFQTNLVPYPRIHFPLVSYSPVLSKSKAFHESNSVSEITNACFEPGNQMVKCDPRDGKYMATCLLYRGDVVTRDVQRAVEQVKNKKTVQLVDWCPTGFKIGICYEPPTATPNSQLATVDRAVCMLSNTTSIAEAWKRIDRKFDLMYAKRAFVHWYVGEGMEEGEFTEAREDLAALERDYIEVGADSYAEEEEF
substance,measurement,value
YFP-VirE2 (from UniProt P0A3W8 1-533) (natural protein),relative FRET index,11.9
